For 34 variants, fraction ligated results are on record in the supplement of paper PMC6755084.

The chains are these.
B1: F1*; the commonest letter at each place (parent)
chain: GAGACCGCAACTGAAAAGTTGTTATCACTTGTCGTAAGACACTTTGGATGGGTTGAAGTTCTGCACGTAGAAGCAAAAGGC

In this data set the parent is B1. Description: fraction ligated after 30 min (ligated reads / total reads); higher = more ligase activity. As to conditions: with F1*sub RNA substrate (template-directed ligation), 42 °C. On the procedure: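 Chip-synthesised pool of F1* ligase ribozyme variants (all single and double substitutions, single, double and triple deletions in the catalytic core and GAA bulge, plus designed variants) was transcribed with T7 and reacted as a pool with excess substrate F1*sub for 30 min at 42 C in 50 mM EPPS pH 8.5, 25 mM MgCl2. Ligated and unligated bands were separated by PAGE, barcoded by RT and deep sequenced; fraction ligated = ligated reads / total reads per variant, relative activity = FL / FL of wild type (0.826). Sequences are the DNA template of the ribozyme.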
GAGACCGCAACTGAAAAGTTGTTATCCCTTGTCGTAAGACACTTGGGATGGGTTGAAGTTCTGCACGTAGAAGCAAAAGGC: the fraction ligated is 0.116.
Consider GAGACCGCAACTGAAAAGTTGTTATCCCTTGTCGTAAGACACTTCGGATGGGTTGAAGTTCTGCACGTAGAAGCAAAAGGC, for which the fraction ligated stood at 0.335.
For the variant GAGACCGCAACTGAAAAGTTGTTATCCCTTGTCGTAAGACACTTAGGATGGGTTGAAGTTCTGCACGTAGAAGCAAAAGGC, the fraction ligated amounted to 0.598.
The result for GAGACCGCAACTGAAAAGTTGTTATCCCTTGTCGGAAGACACTTTGGATGGGTTGAAGTTCTGCACGTAGAAGCAAAAGGC reads 0.82.
As to GAGACCGCAACTGAAAAGTTGTTATCGCTTGTCGTAAGACACTTTGGCTGGGTTGAAGTTCTGCACGTAGAAGCAAAAGGC, the fraction ligated was found to be 0.504.
Take GAGACCGCAACTGAAAAGTTGTTATCGCTTGTCGTAAGACACTTTGGGTGGGTTGAAGTTCTGCACGTAGAAGCAAAAGGC: the fraction ligated amounted to 0.788.
Regarding GAGACCGCAACTGAAAAGTTGTTATCGCTTGTCGTAAGACACTTTGGTTGGGTTGAAGTTCTGCACGTAGAAGCAAAAGGC, the fraction ligated amounted to 0.195.
As for GAGACCGCAACTGAAAAGTTGTTATCGCTTGTCGTAAGACACTTTGGATGGGTTGTAGTTCTGCACGTAGAAGCAAAAGGC, the fraction ligated was 0.769.
The result for GAGACCGCAACTGAAAAGTTGTTATCGCTTGTCGTAAGACACTTTGGATGGGTTGGAGTTCTGCACGTAGAAGCAAAAGGC reads 0.755; that for GAGACCGCAACTGAAAAGTTGTTATCGCTTGTCGTAAGACACTTTGGATGGGTTGCAGTTCTGCACGTAGAAGCAAAAGGC, 0.767.
The result for GAGACCGCAACTGAAAAGTTGTTATCCCTTGTCGTAAGACACTTTGGAGGGGTTGAAGTTCTGCACGTAGAAGCAAAAGGC reads 0.733; that for GAGACCGCAACTGAAAAGTTGTTATCCCTTGTCGTAAGACACTTTGGACGGGTTGAAGTTCTGCACGTAGAAGCAAAAGGC, 0.519.
Regarding GAGACCGCAACTGAAAAGTTGTTATCCCTTGTCGTAAGACACTTTGGAAGGGTTGAAGTTCTGCACGTAGAAGCAAAAGGC, the fraction ligated came out at 0.701.
The result for GAGACCGCAACTGAAAAGTTGTTATCGCTTGTCGTAAGACACTTTGGATGGGTTGACGTTCTGCACGTAGAAGCAAAAGGC reads 0.777.
The result for GAGACCGCAACTGAAAAGTTGTTATCGCTTGTCGTAAGACACTTTGGATGGGTTGAGGTTCTGCACGTAGAAGCAAAAGGC reads 0.819; that for GAGACCGCAACTGAAAAGTTGTTATCCCTTGTCGTAAGACACTCTGGATGGGTTGAAGTTCTGCACGTAGAAGCAAAAGGC, 0.788.
The result for GAGACCGCAACTGAAAAGTTGTTATCCCTTGTCGTAAGACACTGTGGATGGGTTGAAGTTCTGCACGTAGAAGCAAAAGGC reads 0.798; that for GAGACCGCAACTGAAAAGTTGTTATCCCTTGTCGTAAGACACTATGGATGGGTTGAAGTTCTGCACGTAGAAGCAAAAGGC, 0.79; that for GAGACCGCAACTGAAAAGTTGTTATCCCTTGTCGTAAGACACGTTGGATGGGTTGAAGTTCTGCACGTAGAAGCAAAAGGC, 0.765.
Regarding GAGACCGCAACTGAAAAGTTGTTATCCCTTGTCGTAAGACACCTTGGATGGGTTGAAGTTCTGCACGTAGAAGCAAAAGGC, the fraction ligated was found to be 0.78.
The result for GAGACCGCAACTGAAAAGTTGTTATCCCTTGTCGTAAGACACATTGGATGGGTTGAAGTTCTGCACGTAGAAGCAAAAGGC reads 0.844; that for GAGACCGCAACTGAAAAGTTGTTATCGCTTGTCGTATGACACTTTGGATGGGTTGAAGTTCTGCACGTAGAAGCAAAAGGC, 0.81.
The result for GAGACCGCAACTGAAAAGTTGTTATCGCTTGTCGTAGGACACTTTGGATGGGTTGAAGTTCTGCACGTAGAAGCAAAAGGC reads 0.848; that for GAGACCGCAACTGAAAAGTTGTTATCGCTTGTCGTACGACACTTTGGATGGGTTGAAGTTCTGCACGTAGAAGCAAAAGGC, 0.817.
The result for GAGACCGCAACTGAAAAGTTGTTATCGCTTGTCGTAAGACTCTTTGGATGGGTTGAAGTTCTGCACGTAGAAGCAAAAGGC reads 0.837; that for GAGACCGCAACTGAAAAGTTGTTATCGCTTGTCGTAAGACGCTTTGGATGGGTTGAAGTTCTGCACGTAGAAGCAAAAGGC, 0.791.
GAGACCGCAACTGAAAAGTTGTTATCGCTTGTCGTAAGACCCTTTGGATGGGTTGAAGTTCTGCACGTAGAAGCAAAAGGC: the fraction ligated turned out to be 0.789.
The result for GAGACCGCAACTGAAAAGTTGTTATCGCTTGTCGTAAGGCACTTTGGATGGGTTGAAGTTCTGCACGTAGAAGCAAAAGGC reads 0.799; that for GAGACCGCAACTGAAAAGTTGTTATCGCTTGTCGTAAGCCACTTTGGATGGGTTGAAGTTCTGCACGTAGAAGCAAAAGGC, 0.8.
For GAGACCGCAACTGAAAAGTTGTTATCGCTTGTCGTAAGTCACTTTGGATGGGTTGAAGTTCTGCACGTAGAAGCAAAAGGC, the fraction ligated was found to be 0.814.
With GAGACCGCAACTGAAAAGTTGTTATCGCTTGTCGTAAGACACTTTGGATGGGTTGAAGTTCTGCACGTAGAAGCAAAAGGC, the fraction ligated turned out to be 0.852.
The result for GAGACCGCAACTGAAAAGTTGTTATCGCTTGTCGTCAGACACTTTGGATGGGTTGAAGTTCTGCACGTAGAAGCAAAAGGC reads 0.822.
As to GAGACCGCAACTGAAAAGTTGTTATCGCTTGTCGTTAGACACTTTGGATGGGTTGAAGTTCTGCACGTAGAAGCAAAAGGC, the fraction ligated stood at 0.826.
The result for GAGACCGCAACTGAAAAGTTGTTATCGCTTGTCGTGAGACACTTTGGATGGGTTGAAGTTCTGCACGTAGAAGCAAAAGGC reads 0.805.
